Our source for the EC50 of mitogenic activity, NIH 3T3 fibroblast proliferation, in the absence of heparin, EC50 of mitogenic activity, NIH 3T3 fibroblast proliferation, in the presence of 10 U/ml heparin and fold increase in mitogenic activity relative to wild-type FGF-1, in the absence of added heparin values is US20100298220A1.

This test deals with FGF receptor (on NIH 3T3 fibroblasts). Nature of the test: cell-based or functional assay.

Take “Ala66→Cys mutant of human FGF-1 (140 amino acid form, His-tagged), oxidized form (from UniProt P05230 16-155) (ligand)”: the EC50 of mitogenic activity, NIH 3T3 fibroblast proliferation, in the absence of heparin was found to be 5.43 ng/mL; the EC50 of mitogenic activity, NIH 3T3 fibroblast proliferation, in the presence of 10 U/ml heparin is 0.36 ng/mL; the fold increase in mitogenic activity relative to wild-type FGF-1, in the absence of added heparin was 10 fold.

On to “wild-type human FGF-1, 140 amino acid form, with an additional amino-terminal six His tag (from UniProt P05230 16-155) (ligand)”, for which the EC50 of mitogenic activity, NIH 3T3 fibroblast proliferation, in the absence of heparin came out at 58.4 ng/mL and the EC50 of mitogenic activity, NIH 3T3 fibroblast proliferation, in the presence of 10 U/ml heparin came to 0.48 ng/mL.
